Measurements as given in publication PMC2100146, “The Inhibition of Polo Kinase by Matrimony Maintains G2 Arrest in the Meiotic Cell Cycle” (PLoS Biology, 2007).

Molecular target: T1, C-terminally 3x FLAG-tagged Mtrm (Drosophila melanogaster, UniProt Q23973 1-217)
T1 construct: Matrimony (Mtrm), Drosophila melanogaster, 217 amino acids; Phosphorylation detected by MS on T40, S48, S52, S124 and S137; also called Mtrm-FLAG(3x); mtrm-Flag(3x); source: UASP-mtrm-Flag(3x) expressed in ovaries under the nanos-GAL4 driver in a wild-type background, in ovary extract; not shown: 3x FLAG, C-terminal, kept
T1 sequence (looked up): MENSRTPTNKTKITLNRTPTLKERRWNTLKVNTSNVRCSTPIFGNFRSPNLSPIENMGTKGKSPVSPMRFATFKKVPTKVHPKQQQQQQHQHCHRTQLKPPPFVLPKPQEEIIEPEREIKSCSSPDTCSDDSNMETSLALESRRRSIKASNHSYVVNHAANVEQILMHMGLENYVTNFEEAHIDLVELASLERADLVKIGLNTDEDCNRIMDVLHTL
Assay: affinity purification with mass spectrometry; anti-FLAG beads, ovary extracts expressing Mtrm-3x FLAG, eluted with 3x FLAG peptide; MudPIT; three independent purifications against five control FLAG immunoprecipitations from w1118; ratio of NSAF values
Conditions: partners not purified

B1: Polo kinase (Polo) (enzyme, UniProt P52304 1-576, looked up)
chain: MAAKPEDKSTDIPDRLVDINQRKTYKRMRFFGKGGFAKCYEIIDVETDDVFAGKIVSKKLMIKHNQKEKTAQEITIHRSLNHPNIVKFHNYFEDSQNIYIVLELCKKRSMMELHKRRKSITEFECRYYIYQIIQGVKYLHDNRIIHRDLKLGNLFLNDLLHVKIGDFGLATRIEYEGERKKTLCGTPNYIAPEILTKKGHSFEVDIWSIGCVMYTLLVGQPPFETKTLKDTYSKIKKCEYRVPSYLRKPAADMVIAMLQPNPESRPAIGQLLNFEFLKGSKVPMFLPSSCLTMAPRIGSNDTIEDSMHRKPLMEMNGIRPDDTRLESTFLKANLHDAITASAQVCRHSEDYRSDIESLYQQLTNLINGKPRILQGNLGDENTDPAAQPLFWISKWVDYSDKYGFGYQLCDEGIGVMFNDTTKLILLPNQINVHFIDKDGKETYMTTTDYCKSLDKKMKLLSYFKRYMIEHLVKAGANNVNIESDQISRMPHLHSWFRTTCAVVMHLTNGSVQLNFSDHMKLILCPRMSAITYMDQEKNFRTYRFSTIVENGVSKDLYQKIRYAQEKLRKMLEKMFT
notes: Polo kinase, Drosophila melanogaster; endogenous protein of ovaries; Polo recovered with Mtrm-3xFLAG was found phosphorylated on T182 at over 80% in all three purifications; source: endogenous, Drosophila ovary extract
- stoichiometry N: 0.96 ± 0.11
